T1: Fibrinogen
T1 construct: also called human fibrinogen
T1 alpha: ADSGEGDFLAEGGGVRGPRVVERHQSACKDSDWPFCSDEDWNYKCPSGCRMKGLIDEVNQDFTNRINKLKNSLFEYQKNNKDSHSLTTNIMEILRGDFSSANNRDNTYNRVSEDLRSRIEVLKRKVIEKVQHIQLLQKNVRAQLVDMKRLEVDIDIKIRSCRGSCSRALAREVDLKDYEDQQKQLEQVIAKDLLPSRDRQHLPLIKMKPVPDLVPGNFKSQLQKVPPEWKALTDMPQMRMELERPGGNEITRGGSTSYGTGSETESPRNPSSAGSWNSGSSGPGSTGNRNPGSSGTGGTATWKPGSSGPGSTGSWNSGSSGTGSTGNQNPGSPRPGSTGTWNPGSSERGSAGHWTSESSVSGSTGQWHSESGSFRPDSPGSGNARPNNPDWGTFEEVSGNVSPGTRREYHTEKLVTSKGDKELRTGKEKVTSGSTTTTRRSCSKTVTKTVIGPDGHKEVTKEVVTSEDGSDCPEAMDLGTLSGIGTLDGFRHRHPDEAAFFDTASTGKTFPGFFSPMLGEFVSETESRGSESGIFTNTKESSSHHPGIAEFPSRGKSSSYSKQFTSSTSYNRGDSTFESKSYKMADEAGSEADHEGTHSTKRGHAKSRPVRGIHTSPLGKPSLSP
T1 beta: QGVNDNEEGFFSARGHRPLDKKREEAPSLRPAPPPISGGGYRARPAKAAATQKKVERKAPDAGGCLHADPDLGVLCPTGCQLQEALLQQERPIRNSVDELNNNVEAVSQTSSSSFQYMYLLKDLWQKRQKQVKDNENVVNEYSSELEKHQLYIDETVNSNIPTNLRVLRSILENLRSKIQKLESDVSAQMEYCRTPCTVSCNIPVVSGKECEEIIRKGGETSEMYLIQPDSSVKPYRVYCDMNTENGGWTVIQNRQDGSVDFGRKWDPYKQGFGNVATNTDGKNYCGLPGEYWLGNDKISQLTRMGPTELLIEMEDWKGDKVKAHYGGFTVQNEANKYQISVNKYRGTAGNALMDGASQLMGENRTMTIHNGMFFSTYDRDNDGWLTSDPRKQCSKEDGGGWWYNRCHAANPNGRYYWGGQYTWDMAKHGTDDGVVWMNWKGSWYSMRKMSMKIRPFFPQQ
T1 gamma: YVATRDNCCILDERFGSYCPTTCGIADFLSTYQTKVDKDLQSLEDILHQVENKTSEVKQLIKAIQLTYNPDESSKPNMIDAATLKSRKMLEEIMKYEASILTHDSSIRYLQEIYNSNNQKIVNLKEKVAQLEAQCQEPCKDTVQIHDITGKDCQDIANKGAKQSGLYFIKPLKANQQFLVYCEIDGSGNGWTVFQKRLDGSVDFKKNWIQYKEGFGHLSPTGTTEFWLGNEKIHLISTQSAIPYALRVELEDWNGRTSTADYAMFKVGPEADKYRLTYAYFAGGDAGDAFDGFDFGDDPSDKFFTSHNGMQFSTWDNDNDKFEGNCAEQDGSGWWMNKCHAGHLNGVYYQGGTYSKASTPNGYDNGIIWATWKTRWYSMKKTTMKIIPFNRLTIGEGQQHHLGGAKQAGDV

B1: UpaB α-domain (α^UpaB) from UPEC strain CFT073 (other)
chain: TDSTVSTDPVTLNTEKTTLDQDVVINGDNKITAVTIETSDSDKDLNVTFGGHDITAASTVNQDFVEGVKVSGNKNVVINATDSTITAQGEGTYVRTAMVIDSTGDVVVNGGNFVAKNEKGSATGISLEATTGNNLTLNGTTINAQGNKSYSNGSTAIFAQKGNLLQGFDGDATDNITLADSNIINGGIETIVTAGNKTGIHTVNLNIKDGSVIGAANNKQTIYASASAQGAGSATQNLNLSVADSTIYSDVLALSESENSASTTTNVNMNVARSYWEGNAYTFNSGDKAGSDLDINLSDSSVWKGKVSGAGDASVSLQNGSVWNVTGSSTVDALAVKDSTVNITKATVNTGTFASQNGTLIVDASSENTLDISGKASGDLRVYSAGSLDLINEQTAFISTGKDSTLKATGTTEGGLYQYDLTQGADGNFYFVKNTHKASNASSVIQAMAAAPANVANLQADTL
notes: also called α^UPaB (native)
B2: Ag43a passenger domain (Ag43a^α) from UPEC strain CFT073 (other)
chain: ADIVVHPGETVNGGTLVNHDNQFVSGTANGVTVSTGLELGPDSDENTGGQWIKAGGTGRNTTVTANGRQIVQAGGTASDTVIRDGGGQSLNGLAVNTTLDNRGEQWVHGGGKAAGTIINQDGYQTIKHGGLATGTIVNTGAEGGPESENVSSGQMVGGTAESTTINKNGRQVIWSSGMARDTLIYAGGDQTVHGEAHNTRLEGGNQYVHNGGTATETLINRDGWQVIKEGGTAAHTTINQKGKLQVNAGGKASDVTQNTGGALVTSTAATVTGTNRLGAFSVVAGKADNVVLENGGRLDVLSGHTATNTRVDDGGTLDIRNGGAATTVSMGNGGVLLADSGAAVSGTRSDGKAFSIGGGQADALMLEKGSSFTLNAGDTATDTTVNGGLFTARGGTLAGTTTLNNGAILTLSGKTVNNDTLTIREGDALLQGGSLTGNGSVEKSGSGTLTVSNTTLTQKAVNLNEGTLTLNDSTVTTDVIAQRGTALKLTGSTVLNGAID
notes: also called Ag43^α; α^43a
B3: Ag43 passenger domain (Ag43^α) from E. coli strain EDL933 (other)
chain: ADKVVQAGETVNDGTLTNHDNQIVFGTANGMTISTGLELGPDSEENTGGQWIQNGGIAGNTTVTTNGRQVVLEGGTASDTVIRDGGGQSLNGLAVNTTLNNRGEQWVHEGGVATGTIINRDGYQSVKSGGLATGTIINTGAEGGPDSDNSYTGQKVQGTAESTTINKNGRQIILFSGLARDTLIYAGGDQSVHGRALNTTLNGGYQYVHRDGLALNTVINEGGWQVVKAGGAAGNTTINQNGELRVHAGGEATAVTQNTGGALVTSTAATVIGTNRLGNFTVENGKADGVVLESGGRLDVLESHSAQNTLVDDGGTLAVSAGGKATSVTITSGGALIADSGATVEGTNASGKFSIDGTSGQASGLLLENGGSFTVNAGGQAGNTTVGHRGTLTLAAGGSLSGRTQLSKGASMVLNGDVVSTGDIVNAGEIRFDNQTTPNAALSRAVAKSNSPVTFHKLTTTNLTGQGGTINMRVRLDGSNASDQLVINGGQATGKTWLAFTNVGNSNLGVATTGQGIRVVDAQNGATTEEGAFALSRPLQAGAFNYTLNRDSDE
B4: Ag43 passenger domain (Ag43^α) from UPEC strain UTI189 (other)
chain: ADTVVQAGETVNGGTLTNHDNQIVLGTANGMTISTGLEYGPDNEANTGGQWIQNGGIANNTTVTGGGLQRVNAGGSVSDTVISAGGGQSLQGQAVNTTLNGGEQWVHEGGIATGTVINEKGWQAVKSGAMATDTVVNTGAEGGPDAENGDTGQTVYGDAVRTTINKNGRQIVAAEGTANTTVVYAGGDQTVHGHALDTTLNGGYQYVHNGGTASDTVVNSDGWQIIKEGGLADFTTVNQKGKLQVNAGGTATNVTLTQGGALVTSTAATVTGSNRLGNFTVENGNADGVVLESGGRLDVLEGHSAWKTLVDDGGTLAVSAGGKATDVTMTSGGALIADSGATVEGTNASGKFSIDGISGQASGLLLENGGSFTVNAGGLASNTTVGHRGTLTLAAGGSLSGRTQLSKGASMVLNGDVVSTGDIVNAGEIRFDNQTTPDAALSRAVAKGDSPVTFHKLTTSNLTGQGGTINMRVRLDGSNASDQLVINGGQATGKTWLAFTNVGNSNLGVATSGQGIRVVDAQNGATTEEGAFALSRPLQAGAFNYTLNRDSDE
B5: Ag43b passenger domain (Ag43b^α) from uropathogenic E. coli strain CFT073 (other)
chain: ADSVVPAGETVNGGTLINHDRQFVSGTADGMTVSTGLELGADSDNNTGGQQIARGGTARNTRVTANGLQDVMAGGSTSDTVISTGGGQNLRGKASGTVLNGGDQWIHAGGRASGTVINQDGYQTIKHGGLVTGTIVNTGAEGGPDSENVSTGQMVGGIAESTTINKNGRQVIWSSGIARDTLIYTGGDQTVHGEAHNTRLEGGNQYVHKYGLALNTVINEGGWQVVKAGGTAGNTTINQNGELRVHAGGEASDVTQNTGGALVTSTAATVTGTNRLGAFSVVEGKADNVVLENGGRLDVLSGHTATRTLVDDGGTLDVRNGGTATAVSMGNGGVLLADSGAAVSGTRSDGTAFRIGGGQADALMLEKGSSFTLNAGDTATDTTVNGGLFTARGGSLAGTTTLNNGATFTLAGKTVNNDTLTIREGDALLQGGALTGNGRVEKSGSGTLTVSNTTLTQKAVNLNEGTLTLNDSTVTTDIIAHRGTALKLTGSTVLNGAIDPTNVTLTSGATWNIPDNATVQSVVDDLSHAGQIHFTSARTGKFVPTTLQVKNLNGQNGTISLRVRPDMAQNNADRLVIDGGRATGKTILNLVNAGNSGTGLATTGKGIQVVEAINGATTEEGAFVQGNMLQAGAFNYTLNRDSDESWYLRSEE
notes: also called Ag43bCFT073^α
B6: TibA passenger domain (TibA^α) from the enterotoxigenic E. coli strain H10407 (other)
chain: YDNQTIGRGETSKSMHLSAGDTAKNTTINSGGKQYVSSGGSATSTTINIGGVQHVSSGGSATSSTINSGGHQHVSSGGSATNTTVNNGGRQTVFSGGSAMGTIINSGGDQYVISGGSATSASVTSGARQFVSSGGIVKATSVNSGGRQYVRDGGSATDTVLNNTGRQFVSSGGSAAKTTINSGGGMYLYGGSATGTSIYNGGRQYVSSGGSATNTTVYSGGRQHVYIDGNVTETTITSGGMLQVEAGGSASKVIQNSGGAVITNTSAAVSGTNDNGSFSIAGGSAVNMLLENGGYLTVFDGHQASDTMVGSDGTLDVRSGGVLYGTTTLTDKGALVGDVVTNEGNLYYLNNSTATFTGTLTGTGTLTQEGGNTRFSGLLSQDGGIFLQSGGAMTMDALQAKANVTTQSGTTLTLDNGTILTGNVAGDSTGAGDMAVKGASVWHLDGDSTVGALTLDNGTVDFRPSTTTRMTPAFQAVSLALGSLSGSGTFQMNTDIASHTGDMLNVAGNASGNFVLDIKNTGLEPVSAGAPLQVVQTGGGDAAFTLKGGKVDAGTWEYGLSKENTNWYLKADT
B7: Fab10C12 (Fab, V domains shown)
VH: QVQLQQPGTELVKPGASVKLSCKASGYTFTNYWMHWVKQRPGQGLEWIGNIGPSSGNTNYNENFKTKATLTVDKSSSTAYMQLSSLTSEDSAVYFCARWGSIRAMDYWGQGTSVTVSS
VL: SIVMTQTPKFLFVSVGDRVTITCKASQSVNNDVAWYQQKPGQSPKLLIYFASNRYTGVPDRFTGSGYGTDFTFTINTVQAEDLAVYFCQQDYSSPQTFGGGTKLEVTR

Legend:
[1] = molecular target: T1, Fibrinogen; assay: ELISA, absorbance at 405 nm, n=9, PBS as control
[2] = molecular target: human fibronectin (human, UniProt P02751 32-2477)
[3] = molecular target: the molecule itself; assay: crystal structure (FIG. 1B)
[4] = molecular target: the molecule itself; assay: crystal structure (FIG. 12A)
[5] = molecular target: the molecule itself; assay: crystal structure (FIG. 12B)
[6] = molecular target: the molecule itself; assay: crystal structure (FIG. 12C)
[7] = molecular target: the molecule itself; assay: crystal structure (FIG. 12D)
[8] = molecular target: B2

human fibronectin, sequence (P02751 32-2477 limits assumed): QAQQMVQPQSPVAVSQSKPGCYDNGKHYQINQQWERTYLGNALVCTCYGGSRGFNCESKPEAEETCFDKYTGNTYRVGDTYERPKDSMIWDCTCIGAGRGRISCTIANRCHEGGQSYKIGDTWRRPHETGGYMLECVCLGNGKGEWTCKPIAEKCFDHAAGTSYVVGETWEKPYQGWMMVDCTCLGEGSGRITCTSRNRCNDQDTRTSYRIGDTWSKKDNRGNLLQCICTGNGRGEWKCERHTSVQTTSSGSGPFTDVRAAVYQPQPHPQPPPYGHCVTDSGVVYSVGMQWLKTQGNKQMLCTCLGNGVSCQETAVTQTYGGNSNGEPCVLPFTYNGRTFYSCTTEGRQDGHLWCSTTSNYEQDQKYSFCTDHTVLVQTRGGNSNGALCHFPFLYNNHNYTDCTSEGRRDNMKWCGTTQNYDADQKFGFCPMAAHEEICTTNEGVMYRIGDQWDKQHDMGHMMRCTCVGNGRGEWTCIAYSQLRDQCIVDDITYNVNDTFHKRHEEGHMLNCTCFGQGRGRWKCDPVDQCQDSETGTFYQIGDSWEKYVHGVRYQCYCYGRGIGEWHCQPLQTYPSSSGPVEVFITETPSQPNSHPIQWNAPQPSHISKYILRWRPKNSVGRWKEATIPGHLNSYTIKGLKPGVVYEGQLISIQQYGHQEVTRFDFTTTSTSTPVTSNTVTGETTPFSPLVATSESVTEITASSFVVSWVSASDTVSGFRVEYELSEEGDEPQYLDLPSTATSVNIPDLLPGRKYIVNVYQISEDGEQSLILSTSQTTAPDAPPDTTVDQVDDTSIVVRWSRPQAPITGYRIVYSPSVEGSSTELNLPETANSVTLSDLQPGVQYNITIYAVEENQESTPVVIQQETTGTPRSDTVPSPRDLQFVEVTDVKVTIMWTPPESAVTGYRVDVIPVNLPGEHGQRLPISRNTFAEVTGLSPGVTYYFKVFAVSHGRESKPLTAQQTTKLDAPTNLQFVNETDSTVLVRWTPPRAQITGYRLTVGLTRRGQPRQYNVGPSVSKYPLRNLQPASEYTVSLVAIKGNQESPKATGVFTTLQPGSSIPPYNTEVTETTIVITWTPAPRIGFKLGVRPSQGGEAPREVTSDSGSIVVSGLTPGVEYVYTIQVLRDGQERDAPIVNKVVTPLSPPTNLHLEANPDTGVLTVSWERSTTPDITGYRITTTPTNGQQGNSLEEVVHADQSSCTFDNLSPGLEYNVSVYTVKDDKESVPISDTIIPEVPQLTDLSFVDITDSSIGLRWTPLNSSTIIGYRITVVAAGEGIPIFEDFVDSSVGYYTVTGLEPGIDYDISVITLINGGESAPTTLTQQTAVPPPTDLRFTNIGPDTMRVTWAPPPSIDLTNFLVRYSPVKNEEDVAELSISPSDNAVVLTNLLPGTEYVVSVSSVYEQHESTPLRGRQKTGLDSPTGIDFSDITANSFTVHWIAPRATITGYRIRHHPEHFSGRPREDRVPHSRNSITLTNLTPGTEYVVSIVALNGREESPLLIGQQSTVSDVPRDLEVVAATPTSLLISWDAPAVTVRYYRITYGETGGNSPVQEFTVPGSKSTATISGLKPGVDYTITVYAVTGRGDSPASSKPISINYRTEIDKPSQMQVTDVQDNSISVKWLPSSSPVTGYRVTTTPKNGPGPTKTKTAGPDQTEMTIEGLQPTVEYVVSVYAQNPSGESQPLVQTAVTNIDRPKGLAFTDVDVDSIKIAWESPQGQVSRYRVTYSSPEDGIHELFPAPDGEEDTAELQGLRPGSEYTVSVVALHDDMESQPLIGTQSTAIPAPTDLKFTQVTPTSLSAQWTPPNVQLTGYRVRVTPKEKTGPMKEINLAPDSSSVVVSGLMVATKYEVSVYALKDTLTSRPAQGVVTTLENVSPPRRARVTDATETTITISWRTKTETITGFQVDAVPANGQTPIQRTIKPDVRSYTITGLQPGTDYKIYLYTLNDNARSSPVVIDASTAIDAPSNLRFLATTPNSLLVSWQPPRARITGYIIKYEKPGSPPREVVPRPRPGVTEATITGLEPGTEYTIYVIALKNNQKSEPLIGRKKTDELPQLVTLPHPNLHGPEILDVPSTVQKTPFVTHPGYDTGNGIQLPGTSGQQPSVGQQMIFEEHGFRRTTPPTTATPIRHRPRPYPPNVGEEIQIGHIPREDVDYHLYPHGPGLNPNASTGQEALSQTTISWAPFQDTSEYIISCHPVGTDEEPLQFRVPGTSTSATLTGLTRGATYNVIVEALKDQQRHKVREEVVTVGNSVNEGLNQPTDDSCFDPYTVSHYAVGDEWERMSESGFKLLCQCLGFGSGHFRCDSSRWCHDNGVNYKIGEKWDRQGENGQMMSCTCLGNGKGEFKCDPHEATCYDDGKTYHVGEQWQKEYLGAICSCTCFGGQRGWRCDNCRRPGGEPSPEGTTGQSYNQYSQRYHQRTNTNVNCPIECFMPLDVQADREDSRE

For B1, the binding result [1] was “no binding” and the Kd [2] was 45.2 µM.

B2: binds [3].

B3: binds [4].

B4: binds [5].

B5: binds [6].

B6: binds [7].

B7 was tested, and the Kd [8] was 0.00728 µM.

— patent publication US20210292397A1 (LA TROBE UNIVERSITY, published 2021)
